Data from the supplement of paper PMC7125110.
± gives the standard error. Variants at the floor of the assay were thinned out.

B1: glmS ribozyme (parent)
chain: AUAAAAGCGCCAGAACUACAGAAAUGUAGUUGACGAGGAGGAGGUUUAUCGAAUUUUCGGCGGAUGCCUCCAAA

Tests used:
Settings in all cases: with glucosamine-6-phosphate
[1] = variants of: B1; test: self-cleavage kobs at 40 uM GlcN6P; higher = faster cleavage; RNA array
How it was run: (§1)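 E. coli RNA polymerase transcribed barcoded ribozyme variants in situ on sequenced MiSeq chips, which were tracked via a hybridised Cy3 probe at 37 °C. Tiles were imaged over ~14 h after glucosamine-6-phosphate (40 μM to 10 mM) in HEPES/KCl/Mg(OAc)2 buffer was flowed in. Normalised per-tile medians were fit to one- or two-exponential decays for kobs, and kcat and KM came from weighted Michaelis–Menten fits.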

[2] = variants of: B1; test: self-cleavage kobs at 160 uM GlcN6P; higher = faster cleavage; RNA array
How it was run: as §1

[3] = variants of: B1; test: self-cleavage kobs at 640 uM GlcN6P; higher = faster cleavage; RNA array
How it was run: as §1

[4] = variants of: B1; test: self-cleavage kobs at 10000 uM GlcN6P; higher = faster cleavage; RNA array
How it was run: as §1

[5] = variants of: B1; test: self-cleavage kobs at 2500 uM GlcN6P; higher = faster cleavage; RNA array
How it was run: as §1

Row | Variant | self-cleavage kobs at 40 uM GlcN6P [1] [s⁻¹] | self-cleavage kobs at 160 uM GlcN6P [2] [s⁻¹] | self-cleavage kobs at 640 uM GlcN6P [3] [s⁻¹] | self-cleavage kobs at 10000 uM GlcN6P [4] [s⁻¹] | self-cleavage kobs at 2500 uM GlcN6P [5] [s⁻¹]
1 | G51C G60U A64U | < 1e-05 | – | – | – | –
2 | A52C A64G | < 1e-05 | < 1e-05 | < 1e-05 | – | –
3 | U57G C61U | < 1e-05 | – | – | – | –
4 | U55G U65A C67A | 6.53e-05 ± 1.8e-05 | – | – | 9.95e-05 ± 3e-05 | –
5 | A52C G62U | < 1e-05 | < 1e-05 | – | < 1e-05 | –
6 | U47C G60U | < 1e-05 | < 1e-05 | < 1e-05 | – | < 1e-05
7 | U49A C50G C68G | 9.07e-05 ± 3.4e-05 | – | – | – | –
8 | C50G G63C C71U | 7.02e-05 ± 2.9e-05 | – | – | – | –
9 | U49C A52C | < 1e-05 | < 1e-05 | – | < 1e-05 | < 1e-05
10 | U56C U57G | < 1e-05 | – | – | 8.26e-05 ± 2.1e-05 | 2.91e-05 ± 1.2e-05
11 | U47C G66C C67U | < 1e-05 | – | – | – | –
12 | U49A C50G U57A C67A C71A | 0.000473 ± 0.00018 | 0.000223 ± 6.6e-05 | 0.000357 ± 0.00011 | – | 7.6e-05 ± 3.3e-05
13 | A52C G62U C71A | < 1e-05 | – | – | – | < 1e-05
14 | A53U U55A C67G | 0.000155 ± 4.4e-05 | – | – | 0.00212 ± 0.00067 | –
15 | U56C C61G | < 1e-05 | – | – | < 1e-05 | < 1e-05
16 | U55G U57G C67U | < 1e-05 | – | – | – | –
17 | U54G G63A A64U C70U | < 1e-05 | – | – | – | –
18 | G51A A52C A53G | < 1e-05 | – | – | – | –
19 | A52C C71G | < 1e-05 | – | < 1e-05 | – | < 1e-05
20 | C50G G51U | < 1e-05 | < 1e-05 | – | – | –
21 | A52G U54G C61G | < 1e-05 | – | – | – | –
22 | G51C U57C C70G | < 1e-05 | – | – | – | –
23 | C50G C58A C67A | 7.83e-05 ± 1.2e-05 | – | – | 9.18e-05 ± 1.4e-05 | –
24 | G51A U65A | < 1e-05 | – | – | < 1e-05 | < 1e-05
25 | G51A U65C | < 1e-05 | – | – | < 1e-05 | –

Row | Variant | self-cleavage kobs at 40 uM GlcN6P [1] [s⁻¹] | self-cleavage kobs at 160 uM GlcN6P [2] [s⁻¹] | self-cleavage kobs at 640 uM GlcN6P [3] [s⁻¹] | self-cleavage kobs at 10000 uM GlcN6P [4] [s⁻¹] | self-cleavage kobs at 2500 uM GlcN6P [5] [s⁻¹]
26 | G59A G60U C61A | < 1e-05 | – | < 1e-05 | – | < 1e-05
27 | G59C C71U | < 1e-05 | < 1e-05 | < 1e-05 | < 1e-05 | < 1e-05
28 | C58G G62U C68A | 4.88e-05 ± 1.8e-05 | – | – | – | –
29 | A48U A64C C67U | < 1e-05 | – | < 1e-05 | < 1e-05 | –
30 | U56C G62C | < 1e-05 | – | < 1e-05 | < 1e-05 | –
31 | A48G A64U | < 1e-05 | < 1e-05 | < 1e-05 | < 1e-05 | –
32 | C50G C71A | 0.00184 ± 0.00076 | 0.000128 ± 1.3e-05 | 0.000215 ± 2e-05 | – | 0.000153 ± 1.4e-05
33 | A53C U57C | < 1e-05 | – | – | 4.63e-05 ± 1.2e-05 | 4.1e-05 ± 1.6e-05
34 | U56G C71U | 0.000303 ± 4.6e-05 | 0.000762 ± 0.00016 | 0.00222 ± 0.00042 | 0.0163 ± 0.0024 | 0.00323 ± 0.00056
35 | U56G C71A | 8.72e-05 ± 1.6e-05 | 0.000152 ± 4.1e-05 | 0.000589 ± 0.00013 | 0.00215 ± 0.0004 | 0.000518 ± 0.00011
36 | C50G G62U | 0.00036 ± 0.00014 | 0.000115 ± 1.8e-05 | 0.000122 ± 2.7e-05 | 3.35e-05 ± 1e-05 | –
37 | A53G G66A C67A | 0.000154 ± 2.9e-05 | – | – | 0.0038 ± 0.00083 | 0.0011 ± 0.0002
38 | U55A C68U | 0.000668 ± 0.00012 | 0.000841 ± 0.00019 | 0.00148 ± 0.00045 | 0.0158 ± 0.004 | 0.00477 ± 0.00099
39 | C50U G51U | < 1e-05 | – | – | < 1e-05 | –
40 | A53U C68U | 0.000159 ± 2.1e-05 | 0.000357 ± 0.00011 | 0.000788 ± 9.5e-05 | 0.00507 ± 0.00083 | 0.00421 ± 0.00073
41 | U47A U57G C58U C70U | < 1e-05 | – | – | – | –
42 | A48C A52G | < 1e-05 | < 1e-05 | < 1e-05 | – | –
43 | G51C U57G | < 1e-05 | < 1e-05 | < 1e-05 | – | < 1e-05
44 | A48U G60C C61U | < 1e-05 | – | < 1e-05 | – | –
45 | A48G G63U | < 1e-05 | – | – | < 1e-05 | < 1e-05
46 | G51A G62C C67A | < 1e-05 | – | – | < 1e-05 | –
47 | G51C A64U | < 1e-05 | < 1e-05 | < 1e-05 | < 1e-05 | –
48 | U57G G62A | < 1e-05 | – | – | < 1e-05 | –
49 | U56G G62U G63U | < 1e-05 | – | – | < 1e-05 | –
